Test results reported in the supplement of paper PMC7877785.
± gives the uncertainty stated by the source.

Test: self-splicing fitness, log relative to wild type (ln ratio); higher = more splicing; Tetrahymena group I intron in knt gene, E. coli kanamycin selection, DiMSum; sequences stand for … in CUCUCU…GGAGGGAAAAGUUAUCAGGCAUGCACCUGGUAGCUAGUCUUUAAACCAAUAGAUUGCAUCGGUUUAAAAGGCAAGACCGUCAAAUUGCGGGAAAGGGGUCAACAGCCGUUCAGUACCAAGUCUCAGGGGAAACUUUGAGAUGGCCUUGCAAAGGGUAUGGUAAUAAGCUGACGGACAUGGUCCUAACCACGCAGCCAAGUCCUAAGUCAACAGAUCUUCUGUUGAUAUGGAUGCAGUUCACAGACUAAAUGUCGGUCGGGGAAGAUGUAUUCUUCUCAUAAGAUAUAGUCGGACCUCUCCUUAAUGGGAGCUAGCGGAUGAAGUGAUGCAACACUGGAGCCGCUGGGAACUAAUUUGUAUGCGAAAGUAUAUUGAUUAGUUUUGGAGUACUCGUGGUCG
Outline: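 The eight P1ex-region nucleotides of an intron in the knt kanamycin-resistance gene on pET-22b(+) were all randomised and the library put into E. coli BL21(DE3). Six replicate transformations were grown overnight at 37°C or 30°C on LB agar with or without 25 μg/mL kanamycin, together with 100 μg/mL carbenicillin, 50 μM IPTG and 0.2% rhamnose. Colonies were pooled and amplicon-sequenced on an Illumina HiSeq 2500. Fitness from DiMSum is the error-weighted combination of wild-type-normalised replicate fold changes, kanamycin over none.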

Row | Sequence | self-splicing fitness (ln) (30 °C) | self-splicing fitness (ln) (37 °C)
1 | ACACAGCAAUAUUACGGCGA | -0.436 ± 0.086 | -0.165 ± 0.09
2 | ACACAGCAAUAUUACGGGCA | -1.48 ± 0.078 | -0.0778 ± 0.091
3 | ACACAGCAAUAUUACGGGCC | -3.37 ± 0.19 | -2.11 ± 0.18
4 | ACACAGCAAUAUUACGGGGG | -2.9 ± 0.14 | -2.45 ± 0.15
5 | ACACAGCAAUAUUACGGUCA | -0.813 ± 0.071 | 0.0237 ± 0.077
6 | ACACAGCAAUAUUACGUACA | -1.05 ± 0.059 | -0.954 ± 0.068
7 | ACACAGCAAUAUUACGUACG | -1.19 ± 0.067 | -0.925 ± 0.081
8 | ACACAGCAAUAUUACGUGCC | -1.71 ± 0.12 | -0.549 ± 0.093
9 | ACACAGCAAUAUUACGUUGA | -1.91 ± 0.091 | -1.92 ± 0.11
10 | ACACAGCAAUAUUACGUUGC | -3.87 ± 0.11 | -2.58 ± 0.12
11 | ACACAGCAAUAUUACGUUUG | -2.67 ± 0.067 | -1.59 ± 0.081
12 | ACAGAGCAAUAUUACGAGAC | -3.23 ± 0.37 | -2.67 ± 0.31
13 | ACAGAGCAAUAUUACGAGUU | -3.3 ± 0.2 | -1.8 ± 0.14
14 | ACAGAGCAAUAUUACGAUAG | -2.78 ± 0.26 | -3.02 ± 0.35
15 | ACAGAGCAAUAUUACGCAGA | – | -2.25 ± 0.33
16 | ACAGAGCAAUAUUACGCAGC | – | -2.25 ± 0.33
17 | ACAGAGCAAUAUUACGCGAA | -3.58 ± 0.25 | -1.21 ± 0.18
18 | ACAGAGCAAUAUUACGCGCA | -3.09 ± 0.26 | -0.798 ± 0.18
19 | ACAGAGCAAUAUUACGCGGG | -4.91 ± 0.46 | -3.54 ± 0.37
20 | ACAGAGCAAUAUUACGCUGC | -4.55 ± 0.46 | –
21 | ACAGAGCAAUAUUACGGACA | -2.99 ± 0.3 | -2.45 ± 0.25
22 | ACAGAGCAAUAUUACGGAGC | -4.22 ± 0.34 | -3.15 ± 0.25
23 | ACAGAGCAAUAUUACGGCAU | -3.25 ± 0.23 | -0.707 ± 0.17
24 | ACAGAGCAAUAUUACGGGCG | -3.27 ± 0.19 | -1.25 ± 0.2

Row | Sequence | self-splicing fitness (ln) (30 °C) | self-splicing fitness (ln) (37 °C)
25 | ACAGAGCAAUAUUACGUAAA | -3.71 ± 0.16 | -2.09 ± 0.13
26 | ACAGAGCAAUAUUACGUAGA | -4.17 ± 0.37 | -2.19 ± 0.21
27 | ACAGAGCAAUAUUACGUCAA | -2.04 ± 0.21 | -3.16 ± 0.3
28 | ACAGAGCAAUAUUACGUCCU | -1.35 ± 0.21 | -0.399 ± 0.2
29 | ACAGAGCAAUAUUACGUCUA | -3.22 ± 0.33 | -1.73 ± 0.29
30 | ACAGAGCAAUAUUACGUCUC | -3.77 ± 0.19 | -2.4 ± 0.17
31 | ACAGAGCAAUAUUACGUGGG | -2.64 ± 0.12 | -2.4 ± 0.16
32 | ACAGAGCAAUAUUACGUGUA | -3.11 ± 0.15 | -2.62 ± 0.14
33 | ACAGAGCAAUAUUACGUUAG | -3.09 ± 0.16 | -2.87 ± 0.2
34 | ACAUAGCAAUAUUACGAGUA | -3.54 ± 0.43 | -1.8 ± 0.23
35 | ACAUAGCAAUAUUACGAUGA | -0.75 ± 0.072 | -0.575 ± 0.086
36 | ACAUAGCAAUAUUACGCAGC | – | -3.15 ± 0.31
37 | ACAUAGCAAUAUUACGCAGG | -2.73 ± 0.15 | -2.23 ± 0.17
38 | ACAUAGCAAUAUUACGCCGU | -2.02 ± 0.17 | -1.23 ± 0.2
39 | ACAUAGCAAUAUUACGCGAA | -3.3 ± 0.13 | -1.03 ± 0.098
40 | ACAUAGCAAUAUUACGCGAG | -1.01 ± 0.07 | -0.654 ± 0.079
41 | ACAUAGCAAUAUUACGCGUA | -2.19 ± 0.091 | -0.613 ± 0.086
42 | ACAUAGCAAUAUUACGCUGU | -3.64 ± 0.18 | -2.69 ± 0.22
43 | ACAUAGCAAUAUUACGCUUA | -1.76 ± 0.19 | -1.55 ± 0.17
44 | ACAUAGCAAUAUUACGCUUU | -2.82 ± 0.16 | -2.53 ± 0.32
45 | ACAUAGCAAUAUUACGGAAU | -3.72 ± 0.19 | -2.44 ± 0.19
46 | ACAUAGCAAUAUUACGGACG | -1.32 ± 0.1 | -0.653 ± 0.14
47 | ACAUAGCAAUAUUACGGAUA | -1.75 ± 0.17 | -2.34 ± 0.21
48 | ACAUAGCAAUAUUACGGCCA | -0.771 ± 0.12 | -0.572 ± 0.13

Row | Sequence | self-splicing fitness (ln) (30 °C) | self-splicing fitness (ln) (37 °C)
49 | ACAUAGCAAUAUUACGGCGC | -1.1 ± 0.083 | -0.521 ± 0.11
50 | ACAUAGCAAUAUUACGGCUG | -0.175 ± 0.067 | -0.366 ± 0.095
51 | ACAUAGCAAUAUUACGGGAG | -2.13 ± 0.11 | -1.52 ± 0.11
52 | ACAUAGCAAUAUUACGGGCC | – | -1.59 ± 0.2
53 | ACAUAGCAAUAUUACGGGUG | -1.25 ± 0.046 | -0.515 ± 0.064
54 | ACAUAGCAAUAUUACGUACU | -0.24 ± 0.077 | 0.46 ± 0.12
55 | ACAUAGCAAUAUUACGUAUC | -3.37 ± 0.19 | -1.62 ± 0.2
56 | ACAUAGCAAUAUUACGUCAU | -3.16 ± 0.1 | -2.35 ± 0.13
57 | ACAUAGCAAUAUUACGUCUU | -1.33 ± 0.077 | -0.302 ± 0.084
58 | ACAUAGCAAUAUUACGUGAC | -3.15 ± 0.15 | -2.16 ± 0.15
59 | ACAUAGCAAUAUUACGUUAG | -3.66 ± 0.17 | -1.66 ± 0.14
60 | ACAUAGCAAUAUUACGUUCG | -1.04 ± 0.075 | -0.65 ± 0.1
61 | ACAUAGCAAUAUUACGUUUU | -3.76 ± 0.16 | -2.59 ± 0.17
62 | ACCAAGCAAUAUUACGAAAC | -4.33 ± 0.34 | -1.71 ± 0.25
63 | ACCAAGCAAUAUUACGAAGG | -2.34 ± 0.12 | -1.09 ± 0.14
64 | ACCAAGCAAUAUUACGACUA | -0.894 ± 0.099 | -0.585 ± 0.093
65 | ACCAAGCAAUAUUACGAUGC | -2.45 ± 0.088 | -0.944 ± 0.11
66 | ACCAAGCAAUAUUACGCAAC | -3.4 ± 0.38 | -1.01 ± 0.17
67 | ACCAAGCAAUAUUACGCACC | -0.532 ± 0.078 | -0.199 ± 0.11
68 | ACCAAGCAAUAUUACGCACU | -0.396 ± 0.07 | 0.498 ± 0.085
69 | ACCAAGCAAUAUUACGCCUU | -2.87 ± 0.15 | -1.97 ± 0.15
70 | ACCAAGCAAUAUUACGCGAA | -3.09 ± 0.13 | -1.65 ± 0.1
71 | ACCAAGCAAUAUUACGCGAU | -2.1 ± 0.079 | -1.17 ± 0.11
72 | ACCAAGCAAUAUUACGCGGG | -3.38 ± 0.11 | -2.18 ± 0.1

Row | Sequence | self-splicing fitness (ln) (30 °C) | self-splicing fitness (ln) (37 °C)
73 | ACCAAGCAAUAUUACGCUAU | -1.66 ± 0.087 | -0.775 ± 0.098
74 | ACCAAGCAAUAUUACGCUCU | -0.714 ± 0.06 | -0.02 ± 0.073
75 | ACCAAGCAAUAUUACGGAUC | -3.49 ± 0.14 | -1.28 ± 0.1
76 | ACCAAGCAAUAUUACGGCAG | -3.19 ± 0.16 | -1.9 ± 0.17
77 | ACCAAGCAAUAUUACGGGAA | -2.85 ± 0.13 | -2.19 ± 0.1
78 | ACCAAGCAAUAUUACGGUCU | -2.13 ± 0.08 | -0.69 ± 0.066
79 | ACCAAGCAAUAUUACGUAAU | -2.74 ± 0.098 | -0.681 ± 0.078
80 | ACCAAGCAAUAUUACGUCGA | -2.16 ± 0.12 | -1.83 ± 0.1
81 | ACCAAGCAAUAUUACGUGCG | -1.03 ± 0.052 | -0.972 ± 0.069
82 | ACCAAGCAAUAUUACGUGUA | -2.28 ± 0.09 | -1.37 ± 0.096
83 | ACCAAGCAAUAUUACGUUAC | -3.66 ± 0.2 | -1.76 ± 0.14
84 | ACCAAGCAAUAUUACGUUCA | -1.65 ± 0.11 | -1.18 ± 0.1
85 | ACCAAGCAAUAUUACGUUGC | -2.65 ± 0.086 | -0.992 ± 0.075
86 | ACCCAGCAAUAUUACGCCGU | -1.37 ± 0.064 | -0.415 ± 0.081
87 | ACCCAGCAAUAUUACGCGAC | -2.48 ± 0.12 | -1.22 ± 0.13
88 | ACCCAGCAAUAUUACGCGGA | -0.326 ± 0.05 | 0.218 ± 0.064
89 | ACCCAGCAAUAUUACGGAAA | -0.977 ± 0.083 | -0.213 ± 0.083
90 | ACCCAGCAAUAUUACGGAUA | -0.912 ± 0.08 | -0.448 ± 0.083
91 | ACCCAGCAAUAUUACGGAUG | -1.57 ± 0.067 | -0.939 ± 0.083
92 | ACCCAGCAAUAUUACGGGGU | -3.58 ± 0.14 | -3 ± 0.14
93 | ACCCAGCAAUAUUACGUAAU | -0.676 ± 0.035 | 0.426 ± 0.061
94 | ACCCAGCAAUAUUACGUAUU | -1.93 ± 0.069 | -0.714 ± 0.077
95 | ACCCAGCAAUAUUACGUCAG | -3.14 ± 0.11 | -1.22 ± 0.092
96 | ACCCAGCAAUAUUACGUGAG | -0.151 ± 0.037 | -0.0922 ± 0.054
